PMC2148210 (The Journal of Cell Biology, 1999)

Target: microtubules assembled from bovine brain phosphocellulose-tubulin with taxol (bovine, UniProt Q6B856 1-445)
Experiment: co-sedimentation

Sequence of microtubules assembled from bovine brain phosphocellulose-tubulin with taxol (Q6B856 whole entry, looked up): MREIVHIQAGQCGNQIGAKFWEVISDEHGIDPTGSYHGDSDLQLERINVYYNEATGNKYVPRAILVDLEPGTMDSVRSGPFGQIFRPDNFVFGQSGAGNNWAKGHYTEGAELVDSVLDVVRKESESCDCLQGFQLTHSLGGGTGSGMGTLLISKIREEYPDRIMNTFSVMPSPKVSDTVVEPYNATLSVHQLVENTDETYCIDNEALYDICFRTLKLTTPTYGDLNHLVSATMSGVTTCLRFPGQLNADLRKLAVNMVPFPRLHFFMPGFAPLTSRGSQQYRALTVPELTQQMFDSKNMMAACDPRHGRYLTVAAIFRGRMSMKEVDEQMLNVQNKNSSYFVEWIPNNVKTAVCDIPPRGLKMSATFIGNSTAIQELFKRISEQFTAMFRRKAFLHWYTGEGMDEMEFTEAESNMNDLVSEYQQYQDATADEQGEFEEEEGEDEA

fold increase of bound protein, sheared against unsheared microtubules: 1.8 fold
B1: GMAP-210 (Golgi microtubule-associated protein 210), endogenous (natural protein, human (endogenous in HeLa), UniProt Q15643 1-1979, looked up)
chain: MSSWLGGLGSGLGQSLGQVGGSLASLTGQISNFTKDMLMEGTEEVEAELPDSRTKEIEAIHAILRSENERLKKLCTDLEEKHEASEIQIKQQSTSYRNQLQQKEVEISHLKARQIALQDQLLKLQSAAQSVPSGAGVPATTASSSFAYGISHHPSAFHDDDMDFGDIISSQQEINRLSNEVSRLESEVGHWRHIAQTSKAQGTDNSDQSEICKLQNIIKELKQNRSQEIDDHQHEMSVLQNAHQQKLTEISRRHREELSDYEERIEELENLLQQGGSGVIETDLSKIYEMQKTIQVLQIEKVESTKKMEQLEDKIKDINKKLSSAENDRDILRREQEQLNVEKRQIMEECENLKLECSKLQPSAVKQSDTMTEKERILAQSASVEEVFRLQQALSDAENEIMRLSSLNQDNSLAEDNLKLKMRIEVLEKEKSLLSQEKEELQMSLLKLNNEYEVIKSTATRDISLDSELHDLRLNLEAKEQELNQSISEKETLIAEIEELDRQNQEATKHMILIKDQLSKQQNEGDSIISKLKQDLNDEKKRVHQLEDDKMDITKELDVQKEKLIQSEVALNDLHLTKQKLEDKVENLVDQLNKSQESNVSIQKENLELKEHIRQNEEELSRIRNELMQSLNQDSNSNFKDTLLKEREAEVRNLKQNLSELEQLNENLKKVAFDVKMENEKLVLACEDVRHQLEECLAGNNQLSLEKNTIVETLKMEKGEIEAELCWAKKRLLEEANKYEKTIEELSNARNLNTSALQLEHEHLIKLNQKKDMEIAELKKNIEQMDTDHKETKDVLSSSLEEQKQLTQLINKKEIFIEKLKERSSKLQEELDKYSQALRKNEILRQTIEEKDRSLGSMKEENNHLQEELERLREEQSRTAPVADPKTLDSVTELASEVSQLNTIKEHLEEEIKHHQKIIEDQNQSKMQLLQSLQEQKKEMDEFRYQHEQMNATHTQLFLEKDEEIKSLQKTIEQIKTQLHEERQDIQTDNSDIFQETKVQSLNIENGSEKHDLSKAETERLVKGIKERELEIKLLNEKNISLTKQIDQLSKDEVGKLTQIIQQKDLEIQALHARISSTSHTQDVVYLQQQLQAYAMEREKVFAVLNEKTRENSHLKTEYHKMMDIVAAKEAALIKLQDENKKLSTRFESSGQDMFRETIQNLSRIIREKDIEIDALSQKCQTLLAVLQTSSTGNEAGGVNSNQFEELLQERDKLKQQVKKMEEWKQQVMTTVQNMQHESAQLQEELHQLQAQVLVDSDNNSKLQVDYTGLIQSYEQNETKLKNFGQELAQVQHSIGQLCNTKDLLLGKLDIISPQLSSASLLTPQSAECLRASKSEVLSESSELLQQELEELRKSLQEKDATIRTLQENNHRLSDSIAATSELERKEHEQTDSEIKQLKEKQDVLQKLLKEKDLLIKAKSDQLLSSNENFTNKVNENELLRQAVTNLKERILILEMDIGKLKGENEKIVETYRGKETEYQALQETNMKFSMMLREKEFECHSMKEKALAFEQLLKEKEQGKTGELNQLLNAVKSMQEKTVVFQQERDQVMLALKQKQMENTALQNEVQRLRDKEFRSNQELERLRNHLLESEDSYTREALAAEDREAKLRKKVTVLEEKLVSSSNAMENASHQASVQVESLQEQLNVVSKQRDETALQLSVSQEQVKQYALSLANLQMVLEHFQQEEKAMYSAELEKQKQLIAEWKKNAENLEGKVISLQECLDEANAALDSASRLTEQLDVKEEQIEELKRQNELRQEMLDDVQKKLMSLANSSEGKVDKVLMRNLFIGHFHTPKNQRHEVLRLMGSILGVRREEMEQLFHDDQGGVTRWMTGWLGGGSKSVPNTPLRPNQQSVVNSSFSELFVKFLETESHPSIPPPKLSVHDMKPLDSPGRRKRDTNAPESFKDTAESRSGRRTDVNPFLAPRSAAVPLINPAGLGPGGPGHLLLKPISDVLPTFTPLPALPDNSAGVVLKDLLKQ
